Target: ACE2-Fc (soluble human ACE2 fused to human IgG Fc) (human) (UniProt Q9BYF1)
Experiment: BLI

ACE2-Fc (soluble human ACE2 fused to human IgG Fc) (human), sequence (Q9BYF1 18-738): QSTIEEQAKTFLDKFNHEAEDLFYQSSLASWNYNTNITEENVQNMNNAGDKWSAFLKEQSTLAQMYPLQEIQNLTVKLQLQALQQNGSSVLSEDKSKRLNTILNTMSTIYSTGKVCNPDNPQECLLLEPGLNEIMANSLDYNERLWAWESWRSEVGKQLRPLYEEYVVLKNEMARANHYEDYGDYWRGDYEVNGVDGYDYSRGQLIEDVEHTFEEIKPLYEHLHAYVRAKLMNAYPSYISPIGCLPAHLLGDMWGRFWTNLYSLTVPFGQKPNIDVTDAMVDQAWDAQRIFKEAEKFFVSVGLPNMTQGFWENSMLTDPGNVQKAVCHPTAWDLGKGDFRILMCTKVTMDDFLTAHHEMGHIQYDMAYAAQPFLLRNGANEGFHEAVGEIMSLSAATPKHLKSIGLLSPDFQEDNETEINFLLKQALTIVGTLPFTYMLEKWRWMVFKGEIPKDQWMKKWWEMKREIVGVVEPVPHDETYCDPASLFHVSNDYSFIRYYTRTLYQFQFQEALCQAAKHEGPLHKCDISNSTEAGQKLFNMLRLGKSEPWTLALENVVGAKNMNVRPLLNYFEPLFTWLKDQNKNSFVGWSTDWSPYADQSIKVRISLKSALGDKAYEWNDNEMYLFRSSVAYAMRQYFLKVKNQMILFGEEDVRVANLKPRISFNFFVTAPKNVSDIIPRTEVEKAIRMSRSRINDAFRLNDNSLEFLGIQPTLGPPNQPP

In the case of “wild-type SARS-CoV-1 S-Trimer (from UniProt P59594 14-1193) (domain or fragment)”, the Kd is reported as 1.2 nM.

Reference: paper PMC8139713
